# In paper PMC9871967, “A hnRNPA2B1 agonist effectively inhibits HBV and SARS-CoV-2 omicron in vivo” (Protein & Cell, 2022):
# B1: heterogeneous nuclear ribonucleoprotein A2B1 (natural protein, UniProt P22626 1-353, looked up)
# chain: MEKTLETVPLERKKREKEQFRKLFIGGLSFETTEESLRNYYEQWGKLTDCVVMRDPASKRSRGFGFVTFSSMAEVDAAMAARPHSIDGRVVEPKRAVAREESGKPGAHVTVKKLFVGGIKEDTEEHHLRDYFEEYGKIDTIEIITDRQSGKKRGFGFVTFDDHDPVDKIVLQKYHTINGHNAEVRKALSRQEMQEVQSSRSGRGGNFGFGDSRGGGGNFGPGPGSNFRGGSDGYGSGRGFGDGYNGYGGGPGGGNFGGSPGYGGGRGGYGGGGPGYGNQGGGYGGGYDNYGGGNYGSGNYNDFGNYNQQPSNYGPMKSGNFGGSRNMGGPYGGGNYGPGGSGGSGGYGGRSRY
# notes: heterogeneous nuclear ribonucleoprotein A2B1, endogenous in human hepatoma cell lines, precipitated and detected with anti-hnRNPA2B1 (Santa Cruz sc-32316); Endogenous protein; also called hnRNPA2B1; source: endogenous, HepG2.2.15, HepAD38 and HepG2 cell lysates
# Biological target: the molecule itself
# Assay: native gel or EMSA; HepG2.2.15 cells treated with PAC5 (10 μmol/L) for the indicated time; cell lysates on native PAGE, hnRNPA2B1-dimerization assay by immunoblot
protein,measurement,value
B1,stoichiometry N,2
